Legend:
[1] = biological target: infectious CHIKV particles (strain 181/25) (chikungunya virus strain 181/25); assay: cryo-EM structure
[2] = biological target: CHIKV virus-like particles (strain 37997), produced from C-E3-E2-6K-E1 (chikungunya virus strain 37997); assay: cryo-EM structure
[3] = biological target: CHIKV virus-like particles (strain 37997), produced from C-E3-E2-6K-E1 (chikungunya virus strain 37997); assay: SPR

mammalian cell-generated murine Mxra8 (residues 23-336), cleaved from Mxra8-HRV-Fc (from UniProt Q9DBV4 23-336) (domain or fragment)
stoichiometry N (Mxra8 proteins per particle) [1]: 60
stoichiometry N (Mxra8 molecules per virion) [2]: 240

recombinant murine Mxra8 (soluble; preparation not stated for this experiment) (from UniProt Q9DBV4 20-340) (domain or fragment)
KD, high affinity site (kinetically derived, two-site model) [3]: 84 nM
KD, lower affinity sites (kinetically derived, two-site model) [3]: 270 nM
